US20180087042A1 (OPKO BIOLOGICS, published 2018)
One block for each substance: values may come before it.

Legend:
Test in all cases: cell-based or functional assay
[1] = target: MOD-5014 (FVIIa-CTP3: activated Factor VII with three CTP peptides attached at the C-terminus) (human) (UniProt P08709)
[2] = target: NovoSeven® (commercial recombinant human FVIIa) (human) (UniProt P08709)
Factor X = Factor X (UniProt P00742 41-488, limits assumed)
Factor X, sequence (P00742 41-488 limits assumed): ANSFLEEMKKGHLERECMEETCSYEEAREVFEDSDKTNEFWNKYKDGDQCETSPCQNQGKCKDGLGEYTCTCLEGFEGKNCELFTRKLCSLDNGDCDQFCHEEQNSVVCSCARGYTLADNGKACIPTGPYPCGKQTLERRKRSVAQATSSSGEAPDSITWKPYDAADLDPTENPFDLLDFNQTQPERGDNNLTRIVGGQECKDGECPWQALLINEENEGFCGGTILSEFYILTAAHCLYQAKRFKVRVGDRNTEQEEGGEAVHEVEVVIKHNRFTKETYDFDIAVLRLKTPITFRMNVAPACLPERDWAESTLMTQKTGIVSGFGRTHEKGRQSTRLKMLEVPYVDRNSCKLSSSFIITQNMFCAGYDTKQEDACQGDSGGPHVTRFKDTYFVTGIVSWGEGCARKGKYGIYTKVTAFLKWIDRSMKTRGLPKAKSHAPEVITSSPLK

NovoSeven® (commercial recombinant human FVIIa) (human), sequence (P08709 61-466 limits assumed): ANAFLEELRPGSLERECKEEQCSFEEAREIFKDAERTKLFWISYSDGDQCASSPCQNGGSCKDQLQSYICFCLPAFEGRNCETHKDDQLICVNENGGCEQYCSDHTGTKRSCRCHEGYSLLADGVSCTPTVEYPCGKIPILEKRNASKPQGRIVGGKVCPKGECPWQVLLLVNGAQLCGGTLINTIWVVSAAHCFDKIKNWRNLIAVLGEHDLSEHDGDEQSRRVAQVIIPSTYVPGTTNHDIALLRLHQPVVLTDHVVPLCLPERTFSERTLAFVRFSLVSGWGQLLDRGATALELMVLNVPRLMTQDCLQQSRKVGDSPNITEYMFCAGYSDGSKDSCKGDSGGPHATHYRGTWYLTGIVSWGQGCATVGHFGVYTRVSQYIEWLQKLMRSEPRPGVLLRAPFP
NovoSeven® (commercial recombinant human FVIIa), sequence (P08709 61-466 limits assumed): as above
MOD-5014 (FVIIa-CTP3: activated Factor VII with three CTP peptides attached at the C-terminus) (human), sequence (P08709 61-212, chain 1 of 2): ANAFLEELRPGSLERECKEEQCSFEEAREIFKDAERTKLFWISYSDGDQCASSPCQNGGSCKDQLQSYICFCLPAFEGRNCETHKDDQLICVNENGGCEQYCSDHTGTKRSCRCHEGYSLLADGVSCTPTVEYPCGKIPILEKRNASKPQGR
MOD-5014 (FVIIa-CTP3: activated Factor VII with three CTP peptides attached at the C-terminus) (human), sequence (P08709 other isoform, or with tags, fused parts or gaps, chain 2 of 2): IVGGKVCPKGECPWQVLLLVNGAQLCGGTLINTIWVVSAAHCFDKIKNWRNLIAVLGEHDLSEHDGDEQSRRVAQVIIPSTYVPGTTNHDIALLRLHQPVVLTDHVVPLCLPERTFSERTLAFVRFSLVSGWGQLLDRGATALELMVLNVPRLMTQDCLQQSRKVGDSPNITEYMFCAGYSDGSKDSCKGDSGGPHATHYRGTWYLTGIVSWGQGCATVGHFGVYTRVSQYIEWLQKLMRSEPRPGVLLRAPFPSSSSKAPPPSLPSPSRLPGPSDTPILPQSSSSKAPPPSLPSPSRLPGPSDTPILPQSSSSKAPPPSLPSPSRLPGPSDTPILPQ

% Inhibition of clotting activity, AT 1.050 ng/mL [1]: 25%
% Inhibition of clotting activity, AT 10.5 ng/mL [1]: 28%
% Inhibition of clotting activity, AT 105 ng/mL [1]: 25%
% Inhibition of clotting activity, AT 10,500 ng/mL [1]: 25%
% Inhibition of clotting activity, AT 105000 ng/mL [1]: 62%
% Inhibition of clotting activity, AT 525000 ng/mL [1]: 100%
Activity (mU/mL), Staclot clotting, AT 1.050 ng/mL [1]: 52.9 mU/mL
Activity (mU/mL), Staclot clotting, AT 10.5 ng/mL [1]: 50.7 mU/mL
Activity (mU/mL), Staclot clotting, AT 105 ng/mL [1]: 53.3 mU/mL
Activity (mU/mL), Staclot clotting, AT 1,050 ng/mL [1]: 53.4 mU/mL
Activity (mU/mL), Staclot clotting, AT 10,500 ng/mL [1]: 53 mU/mL
Activity (mU/mL), Staclot clotting, AT 105000 ng/mL [1]: 27 mU/mL
Activity (mU/mL), Staclot clotting, AT 525000 ng/mL [1]: 0 mU/mL
O.D, FX activation by MOD-5014 (0.7 ng/ml) at AT 0.16 µg/ml [1]: 1.18 O.D
O.D, FX activation by MOD-5014 (0.7 ng/ml) at AT 0.8 µg/ml [1]: 1.07 O.D
O.D, FX activation by MOD-5014 (0.7 ng/ml) at AT 4 µg/ml [1]: 1.14 O.D
O.D, FX activation by MOD-5014 (0.7 ng/ml) at AT 20 µg/ml [1]: 1.11 O.D
O.D, FX activation by MOD-5014 (0.7 ng/ml) at AT 100 µg/ml [1]: 0.974 O.D
O.D, FX activation by MOD-5014 (0.7 ng/ml) at AT 500 µg/ml [1]: 0.975 O.D
O.D, FX activation by MOD-5014 (0.7 ng/ml) at AT 1680 µg/ml [1]: 0.656 O.D
O.D., FX activation by MOD-5014 (0.7 ng/ml) with AT III 20 µg/ml and heparin 0.002 U/µl [1]: 1.29 O.D.
O.D., FX activation by MOD-5014 (0.7 ng/ml) with AT III 20 µg/ml and heparin 0.01 U/µl [1]: 1.14 O.D.
O.D., FX activation by MOD-5014 (0.7 ng/ml) with AT III 20 µg/ml and heparin 0.25 U/µl [1]: 0.017 O.D.
O.D., FX activation by MOD-5014 (0.7 ng/ml) with AT III 20 µg/ml and heparin 1.25 U/µl [1]: 0.896 O.D.
O.D., FX activation by MOD-5014 (0.7 ng/ml) with AT III 20 µg/ml and heparin 6.25 U/µl [1]: 1.02 O.D.
% Inhibition of clotting activity, AT 1.050 ng/mL [2]: 21%
% Inhibition of clotting activity, AT 105 ng/mL [2]: 20%
% Inhibition of clotting activity, AT 10,500 ng/mL [2]: 30%
% Inhibition of clotting activity, AT 525000 ng/mL [2]: 100%
Activity (mU/mL), Staclot clotting, AT 1.050 ng/mL [2]: 69.5 mU/mL
Activity (mU/mL), Staclot clotting, AT 10.5 ng/mL [2]: 68.4 mU/mL
Activity (mU/mL), Staclot clotting, AT 105 ng/mL [2]: 70.2 mU/mL
Activity (mU/mL), Staclot clotting, AT 1,050 ng/mL [2]: 66.8 mU/mL
Activity (mU/mL), Staclot clotting, AT 10,500 ng/mL [2]: 61.5 mU/mL
Activity (mU/mL), Staclot clotting, AT 105000 ng/mL [2]: 30.6 mU/mL
Activity (mU/mL), Staclot clotting, AT 525000 ng/mL [2]: 0 mU/mL
O.D, FX activation by NovoSeven (0.7 ng/ml) at AT 0.16 µg/ml [2]: 1.23 O.D
O.D, FX activation by NovoSeven (0.7 ng/ml) at AT 4 µg/ml [2]: 1.17 O.D
O.D, FX activation by NovoSeven (0.7 ng/ml) at AT 20 µg/ml [2]: 1.15 O.D
O.D, FX activation by NovoSeven (0.7 ng/ml) at AT 100 µg/ml [2]: 1.14 O.D
O.D, FX activation by NovoSeven (0.7 ng/ml) at AT 500 µg/ml [2]: 0.933 O.D
O.D, FX activation by NovoSeven (0.7 ng/ml) at AT 1680 µg/ml [2]: 0.784 O.D
O.D., FX activation by NovoSeven (0.7 ng/ml) with AT III 20 µg/ml and heparin 0.002 U/µl [2]: 1.24 O.D.
O.D., FX activation by NovoSeven (0.7 ng/ml) with AT III 20 µg/ml and heparin 0.01 U/µl [2]: 1.2 O.D.
O.D., FX activation by NovoSeven (0.7 ng/ml) with AT III 20 µg/ml and heparin 0.25 U/µl [2]: 1.04 O.D.
O.D., FX activation by NovoSeven (0.7 ng/ml) with AT III 20 µg/ml and heparin 1.25 U/µl [2]: 0.98 O.D.
O.D., FX activation by NovoSeven (0.7 ng/ml) with AT III 20 µg/ml and heparin 6.25 U/µl [2]: 1 O.D.
Substance: Anti thrombin III (ATIII) (from UniProt P01008 33-464)

EC50 of Factor X activation (BIOPHEN FVII chromogenic assay) (Factor X): 0.38 ng/mL
O.D, FX activation at rFVIIa 0.00128 ng/ml (Factor X): 0.123 O.D
O.D, FX activation at rFVIIa 0.00640 ng/ml (Factor X): 0.133 O.D
O.D, FX activation at rFVIIa 0.0320 ng/ml (Factor X): 0.138 O.D
O.D, FX activation at rFVIIa 0.160 ng/ml (Factor X): 0.178 O.D
O.D, FX activation at rFVIIa 0.80 ng/ml (Factor X): 0.303 O.D
O.D, FX activation at rFVIIa 4.00 ng/ml (Factor X): 0.352 O.D
O.D, FX activation at rFVIIa 20.00 ng/ml (Factor X): 0.365 O.D
O.D, FX activation at rFVIIa 100.00 ng/ml (Factor X): 0.363 O.D
Substance: NovoSeven® (commercial recombinant human FVIIa) (from UniProt P08709 61-466) (enzyme)
